Numbering of substitutions follows the chain as printed.
T1: mouse RXFP1 (mouse, UniProt Q6R6I7 1-758)
T1 sequence (looked up): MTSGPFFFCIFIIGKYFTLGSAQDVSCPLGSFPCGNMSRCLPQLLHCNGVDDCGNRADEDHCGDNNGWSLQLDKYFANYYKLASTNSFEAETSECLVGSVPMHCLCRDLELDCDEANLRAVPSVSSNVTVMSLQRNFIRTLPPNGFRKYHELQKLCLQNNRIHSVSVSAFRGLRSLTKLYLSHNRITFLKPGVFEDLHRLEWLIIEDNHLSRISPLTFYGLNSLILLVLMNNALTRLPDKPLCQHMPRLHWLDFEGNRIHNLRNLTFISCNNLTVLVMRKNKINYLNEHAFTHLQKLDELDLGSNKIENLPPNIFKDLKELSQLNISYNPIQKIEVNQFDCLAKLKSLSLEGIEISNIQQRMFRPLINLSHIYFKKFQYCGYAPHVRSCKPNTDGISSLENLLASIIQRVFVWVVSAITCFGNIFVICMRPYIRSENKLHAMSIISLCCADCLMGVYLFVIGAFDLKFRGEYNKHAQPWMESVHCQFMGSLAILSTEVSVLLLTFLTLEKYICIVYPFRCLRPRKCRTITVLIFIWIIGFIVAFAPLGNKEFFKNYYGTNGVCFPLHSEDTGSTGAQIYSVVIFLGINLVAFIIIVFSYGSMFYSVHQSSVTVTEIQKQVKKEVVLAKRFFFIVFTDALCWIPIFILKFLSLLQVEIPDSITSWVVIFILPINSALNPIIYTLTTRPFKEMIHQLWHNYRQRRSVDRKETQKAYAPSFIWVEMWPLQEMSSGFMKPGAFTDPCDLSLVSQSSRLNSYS

T2: human RXFP1 (human, UniProt Q9HBX9 1-757)
T2 sequence (looked up): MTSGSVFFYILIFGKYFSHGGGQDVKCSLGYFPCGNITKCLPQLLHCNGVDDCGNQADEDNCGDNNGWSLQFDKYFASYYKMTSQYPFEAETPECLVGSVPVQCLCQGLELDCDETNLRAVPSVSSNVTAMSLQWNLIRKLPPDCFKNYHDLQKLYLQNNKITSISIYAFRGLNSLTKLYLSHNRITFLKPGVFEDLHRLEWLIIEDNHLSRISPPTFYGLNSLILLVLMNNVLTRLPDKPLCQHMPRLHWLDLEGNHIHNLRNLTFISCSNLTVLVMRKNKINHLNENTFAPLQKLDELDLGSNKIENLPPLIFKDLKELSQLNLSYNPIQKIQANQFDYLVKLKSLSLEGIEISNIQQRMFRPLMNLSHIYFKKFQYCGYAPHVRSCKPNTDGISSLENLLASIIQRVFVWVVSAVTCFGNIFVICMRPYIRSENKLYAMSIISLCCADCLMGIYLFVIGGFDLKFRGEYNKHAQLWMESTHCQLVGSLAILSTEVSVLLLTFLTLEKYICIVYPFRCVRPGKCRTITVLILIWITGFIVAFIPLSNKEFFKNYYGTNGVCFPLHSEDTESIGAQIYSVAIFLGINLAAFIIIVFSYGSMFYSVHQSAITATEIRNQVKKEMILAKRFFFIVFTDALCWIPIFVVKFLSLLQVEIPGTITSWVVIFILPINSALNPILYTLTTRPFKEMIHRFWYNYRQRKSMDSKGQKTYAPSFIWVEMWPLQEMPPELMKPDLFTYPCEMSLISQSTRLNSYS

B1: RELAX0024 (Fc fusion)
chain 1: DKTHTCPPCPAPEFEGGPSVFLFPPKPKDTLMISRTPEVTCVVVDVSHEDPEVKFNWYVDGVEVHNAKTKPREEQYNSTYRVVSVLTVLHQDWLNGKEYKCKVSNKALPASIEKTISKAKGQPREPQVCTLPPSREEMTKNQVSLSCAVKGFYPSDIAVEWESNGQPENNYKTTPPVLDSDGSFFLVSKLTVDKSRWQQGNVFSCSVMHEALHNHYTQKSLSLSPGGGGGSGGGGSGGGGSGGGGGSQLYSALANKCCHVGCTKRSLARFC
chain 2: DKTHTCPPCPAPEFEGGPSVFLFPPKPKDTLMISRTPEVTCVVVDVSHEDPEVKFNWYVDGVEVHNAKTKPREEQYNSTYRVVSVLTVLHQDWLNGKEYKCKVSNKALPASIEKTISKAKGQPREPQVYTLPPCREEMTKNQVSLWCLVKGFYPSDIAVEWESNGQPENNYKTTPPVLDSDGSFFLYSKLTVDKSRWQQGNVFSCSVMHEALHNHYTQKSLSLSPGGGGGSGGGGSGGGGSGGGGGSSWMEEVIKLCGRELVRAQIAICGMSTWS
B2: RELAX0020 (Fc fusion)
chain 1: GGAGGACPPCPAPEFEGGPSVFLFPPKPKDTLMISRTPEVTCVVVDVSHEDPEVKFNWYVDGVEVHNAKTKPREEQYNSTYRVVSVLTVLHQDWLNGKEYKCKVSNKALPASIEKTISKAKGQPREPQVYTLPPCREEMTKNQVSLWCLVKGFYPSDIAVEWESNGQPENNYKTTPPVLDSDGSFFLYSKLTVDKSRWQQGNVFSCSVMHEALHNHYTQKSLSLSPGGGGGSGGGGSGGGGSGGGGGSSWMEEVIKLCGRELVRAQIAICGMSTWS
chain 2: GGAGGACPPCPAPEFEGGPSVFLFPPKPKDTLMISRTPEVTCVVVDVSHEDPEVKFNWYVDGVEVHNAKTKPREEQYNSTYRVVSVLTVLHQDWLNGKEYKCKVSNKALPASIEKTISKAKGQPREPQVCTLPPSREEMTKNQVSLSCAVKGFYPSDIAVEWESNGQPENNYKTTPPVLDSDGSFFLVSKLTVDKSRWQQGNVFSCSVMHEALHNHYTQKSLSLSPGGGGGSGGGGSGGGGSGGGGGSQLYSALANKCCHVGCTKRSLARFC
B3: RELAX0022 (Fc fusion)
chain 1: B2 chain 2 with C130Y
chain 2: B2 chain 1 with C135S
B4: RELAX0091 (Fc fusion)
chain 1: QLYSALANKCCHVGCTKRSLARFCAAAGGGGSGGGGSGGGGSGGGGSACPPCPAPEFEGGPSVFLFPPKPKDTLMISRTPEVTCVVVDVSHEDPEVKFNWYVDGVEVHNAKTKPREEQYNSTYRVVSVLTVLHQDWLNGKEYKCKVSNKALPASIEKTISKAKGQPREPQVYTLPPCREEMTKNQVSLWCLVKGFYPSDIAVEWESNGQPENNYKTTPPVLDSDGSFFLYSKLTVDKSRWQQGNVFSCSVMHEALHNHYTQKSLSLSPG
chain 2: SWMEEVIKLCGRELVRAQIAICGMSTWSAAAGGGGSGGGGSGGGGSGGGGSACPPCPAPEFEGGPSVFLFPPKPKDTLMISRTPEVTCVVVDVSHEDPEVKFNWYVDGVEVHNAKTKPREEQYNSTYRVVSVLTVLHQDWLNGKEYKCKVSNKALPASIEKTISKAKGQPREPQVCTLPPSREEMTKNQVSLSCAVKGFYPSDIAVEWESNGQPENNYKTTPPVLDSDGSFFLVSKLTVDKSRWQQGNVFSCSVMHEALHNHYTQKSLSLSPG
B5: RELAX0063 (Fc fusion)
chain 1: B1 chain 1 with C129Y, S134C, S146W, A148L, V187Y, F270A
chain 2: B1 chain 2 with Y129C, C134S, W146S, L148A, Y187V
B6: RELAX0074 (Fc fusion)
chain 1: B1 chain 1 with C129Y, S134C, S146W, A148L, V187Y, R269S
chain 2: B1 chain 2 with Y129C, C134S, W146S, L148A, Y187V
B7: RELAX0072 (Fc fusion)
chain 1: B1 chain 1 with C129Y, S134C, S146W, A148L, V187Y, R269A
chain 2: B1 chain 2 with Y129C, C134S, W146S, L148A, Y187V
B8: RELAX0071 (Fc fusion)
chain 1: B1 chain 1 with C129Y, S134C, S146W, A148L, V187Y, R269Q
chain 2: B1 chain 2 with Y129C, C134S, W146S, L148A, Y187V
B9: RELAX0075 (Fc fusion)
chain 1: B1 chain 1 with C129Y, S134C, S146W, A148L, V187Y, F270I
chain 2: B1 chain 2 with Y129C, C134S, W146S, L148A, Y187V
B10: RELAX0070 (Fc fusion)
chain 1: B1 chain 1 with C129Y, S134C, S146W, A148L, V187Y, R269I
chain 2: B1 chain 2 with Y129C, C134S, W146S, L148A, Y187V
B11: RELAX0069 (Fc fusion)
chain 1: B1 chain 1 with C129Y, S134C, S146W, A148L, V187Y, R269M
chain 2: B1 chain 2 with Y129C, C134S, W146S, L148A, Y187V
B12: RELAX0073 (Fc fusion)
chain 1: B1 chain 1 with C129Y, S134C, S146W, A148L, V187Y, R269Y
chain 2: B1 chain 2 with Y129C, C134S, W146S, L148A, Y187V

target: T1, mouse RXFP1; assay: cell-based or functional assay

EC50 mRXFP1 (M), cAMP assay | Binder
1.56e-11 M | B1
2.79e-11 M | B2
3.28e-11 M | B3
2.88e-11 M | B4

target: T3, human RXFP2 (human, UniProt Q8WXD0 1-754); assay: cell-based or functional assay
T3 sequence (Q8WXD0 whole entry): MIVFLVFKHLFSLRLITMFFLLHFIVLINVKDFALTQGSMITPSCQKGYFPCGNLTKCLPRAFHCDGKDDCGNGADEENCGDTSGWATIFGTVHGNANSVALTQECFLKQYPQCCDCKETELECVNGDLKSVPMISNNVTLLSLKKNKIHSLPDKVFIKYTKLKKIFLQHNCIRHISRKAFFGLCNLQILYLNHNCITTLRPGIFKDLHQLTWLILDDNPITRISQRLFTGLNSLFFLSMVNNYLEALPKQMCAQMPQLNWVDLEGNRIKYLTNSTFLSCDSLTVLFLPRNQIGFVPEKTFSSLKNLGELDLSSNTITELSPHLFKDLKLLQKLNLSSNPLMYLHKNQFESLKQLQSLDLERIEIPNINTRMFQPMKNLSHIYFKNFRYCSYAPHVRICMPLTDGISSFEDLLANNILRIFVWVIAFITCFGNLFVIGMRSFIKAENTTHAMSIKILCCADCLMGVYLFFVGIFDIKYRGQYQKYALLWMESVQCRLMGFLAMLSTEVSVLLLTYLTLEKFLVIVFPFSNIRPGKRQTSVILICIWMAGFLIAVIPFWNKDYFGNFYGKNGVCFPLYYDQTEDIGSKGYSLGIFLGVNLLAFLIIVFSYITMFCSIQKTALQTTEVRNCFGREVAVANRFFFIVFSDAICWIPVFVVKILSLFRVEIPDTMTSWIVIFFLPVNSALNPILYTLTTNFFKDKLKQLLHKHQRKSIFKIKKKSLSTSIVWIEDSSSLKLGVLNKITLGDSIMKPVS

EC50 hRXFP2 (M), cAMP assay | Binder
4.26e-08 M | B1
3.54e-08 M | B2
> 1.09e-07 M | B4

target: T2, human RXFP1; assay: cell-based or functional assay

EC50 hRXFP1 (M), cAMP assay | Binder
4.6e-11 M | B1
4.41e-11 M | B2
4.74e-11 M | B3
5.88e-11 M | B4

target: T1, mouse RXFP1; assay: cell-based or functional assay; remark: another data set of the same source

EC50 mRXFP1 (M), cAMP assay | Binder
4.46e-11 M | B5
4.53e-11 M | B6
4.03e-11 M | B7
3.93e-11 M | B8
6.14e-11 M | B9
5.02e-11 M | B10
3.69e-11 M | B11
4.15e-11 M | B12

target: T3, human RXFP2; assay: cell-based or functional assay; remark: another data set of the same source

EC50 hRXFP2 (M), cAMP assay | Binder
> 1.38e-07 M | B5
9.21e-08 M | B6
> 2.3e-07 M | B7
1.15e-07 M | B8
> 1.43e-07 M | B9
1.07e-07 M | B10
> 1.62e-07 M | B11
8.63e-08 M | B12

target: T2, human RXFP1; assay: cell-based or functional assay; remark: another data set of the same source

EC50 hRXFP1 (M), cAMP assay | Binder
1.96e-10 M | B5
5.45e-11 M | B6
8.53e-11 M | B7
6.87e-11 M | B8
9.47e-11 M | B9
6.67e-11 M | B10
5.76e-11 M | B11
5.7e-11 M | B12
